Data as given in paper PMC4459817, “Vasculotide reduces endothelial permeability and tumor cell extravasation in the absence of binding to or agonistic activation of Tie2” (EMBO Molecular Medicine, 2015).

Molecular target: T1, human Tie2-Fc (hTie2-Fc) (Homo sapiens, UniProt Q02763)
T1 construct: Purified human or mouse Tie2-Fc (i.e., Fc-conjugated extracellular domains of Tie2); purchased R&D Systems 313-TI-100
Test: SPR binding to human Tie2-Fc
Conditions: 37°C; for binding to Tie2-Fc: human Tie2-Fc, 0.625–10 nM, pH 7.4, Fig9C
Text: To better understand the difficulties we had in observing Tie2 activation by VT, we sought to characterize the binding affinity and kinetics of VT to Tie2. Purified human or mouse Tie2-Fc (i.e., Fc-conjugated extracellular domains of Tie2) were first coupled to protein A sepharose beads for pull-down experiments (Fig9A and B) or immobilized on a Biacore CM5 sensor chip for surface plasmon resonance (SPR) experiments (Fig9C and Supplementary Fig S3).
Figure 9 Binding of Vasculotide vs. Ang1 variants to the extracellular domain of Tie2 • A–B Pull-down assay. Input ligands—rhAng1 (A) and VT (B)—were incubated with either protein A sepharose beads only, bead-conjugated mouse Tie2-Fc (mTie2), or bead-conjugated human Tie2-Fc (hTie2). […] The ‘unbound’ fraction is 7% of residual/free ligands remaining in the supernatant. • C Quantitative kinetics analysis by SPR. All analytes were run at increasing concentrations of 0.625, 1.25, 2.5, 5, and 10 nM, at 37°C and pH 7.4. […] Source data are available online for this figure. […]
9. Tie2 Receptor-Binding Assays
Vasculotide (VT) was manufactured by Bachem UK Ltd. T7c (CHHHRHSF) was synthesized by Genscript (Piscataway, NJ, USA). PEG-Cys consists of a single cysteine reacted to each of the 4 arms of PEG-maleimide (Sunbright PTE-100MA, NOF Corporation, Tokyo, Japan). BowAng1 (Ang1-Fd-Fc-Fd) was made and provided by Regeneron Pharmaceuticals, Inc. (Tarrytown, NY, USA). COMP-Ang1 was purified in the Kerbel lab from serum-free culture media conditioned by an engineered CHO cell line provided by Dr. Gou Young Koh (KAIST), according to published protocols (Hwang et al, 2008).
Recombinant human Angiopoietin-1 (rhAng1) and Vascular Endothelial Growth Factor ( rhVEGF) were […]
purchased from R&D Systems. […]
(structural/molecular weight control for VT), and 40 μL of supernatant (7% of residual/unbound ligand) – were similarly boiled in SDS sample buffer. Ang1 samples and controls were resolved by 7.5% polyacrylamide gel electrophoresis (PAGE), electroblotted onto PVDF membranes, and probed with an anti-Ang1 antibody (R&D Sytems, AF923; diluted 1:2,000 in TBS supplemented with 7% BSA and 0.1% Tween-20) at 75kDa (reduced monomers). VT samples and controls were resolved by 17% PAGE, blotted onto PVDF membranes, and probed with an anti-PEG antibody (Silver Lake Research, CH2074; diluted 1:4,000 in TBS supplemented with 7% BSA and 0.05% CHAPS*) at higher “apparent” molecular weights than the expected 14 and 10kDa due to their polymeric nature and large hydrodynamic radii (Zheng et al, 2007). *Note: non-ionic, PEO-based, polymer detergents were avoided at these steps as they cross-react with the anti-PEG antibody used for detecting VT.
Surface Plasmon Resonance (SPR) Experiments: The binding of analytes – VT, T7c peptide, PEG-Cys, rhAng1, COMP-Ang1, BowAng1, and rhVEGF – to the extracellular domain of Tie2 were […]
investigated by SPR using a Biacore T200 Instrument (GE Healthcare). For qualitative binding analysis, mTie2-Fc was dissolved in 10mM acetate buffer (pH 4.5) and immobilized at high density onto a CM5 sensor chip using amine coupling chemistry as described by the manufacturer to a response of 11,500RU.
Binding analysis were performed by exposure of immobilized mTie2-Fc to the analytes diluted in HBS-EP (0.01M HEPES pH 7.4, 0.15M NaCl, 3mM EDTA, 0.005% v/v Tween-20), which was supplemented with 1mg/mL carboxymethyl dextran (NSB reducer, GE Healthcare) to reduce non-specific binding to the sensor chip. Analytes were injected at 30μL/min (association time 120s, dissociation time 120s) at 37 °C, and the chip surface was regenerated each cycle by a 60s pulse of 4M MgCl2. To quantitatively determine the kinetic properties of the interaction (KD, kd, ka) and avoid mass transport limitations, mTie2-Fc and hTie2-Fc were immobilized at low density (1,000-1,200RU) onto separate flow cells of the CM5 chip using amine coupling chemistry. Kinetic analyses were performed using a single-cycle kinetic […]

[1] = Biacore T200, single-cycle kinetics, 1:1 model, 0.625–10 nM analyte, pH 7.4 (HBS-EP), Fig9C

T1 sequence (Q02763 23-748 limits assumed): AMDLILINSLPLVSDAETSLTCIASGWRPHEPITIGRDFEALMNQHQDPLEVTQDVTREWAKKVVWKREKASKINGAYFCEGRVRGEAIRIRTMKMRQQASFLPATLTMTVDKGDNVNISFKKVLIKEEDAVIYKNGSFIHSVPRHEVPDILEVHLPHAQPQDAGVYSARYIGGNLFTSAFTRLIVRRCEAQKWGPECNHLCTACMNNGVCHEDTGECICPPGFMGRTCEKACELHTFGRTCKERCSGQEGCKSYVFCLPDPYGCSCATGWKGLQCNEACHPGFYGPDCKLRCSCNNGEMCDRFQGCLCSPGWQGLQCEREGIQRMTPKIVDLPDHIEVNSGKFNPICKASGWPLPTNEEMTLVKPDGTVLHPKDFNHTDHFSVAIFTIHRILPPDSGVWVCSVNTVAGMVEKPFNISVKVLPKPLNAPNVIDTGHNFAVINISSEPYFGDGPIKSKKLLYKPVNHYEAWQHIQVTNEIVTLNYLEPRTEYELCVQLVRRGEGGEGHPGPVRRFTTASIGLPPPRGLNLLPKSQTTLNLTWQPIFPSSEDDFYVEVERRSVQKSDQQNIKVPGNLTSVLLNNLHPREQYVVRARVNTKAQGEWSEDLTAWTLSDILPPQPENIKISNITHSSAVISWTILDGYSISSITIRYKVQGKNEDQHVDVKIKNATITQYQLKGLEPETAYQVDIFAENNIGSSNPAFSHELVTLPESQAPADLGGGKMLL

Row | Off-rate, Kd [1] | On-rate, Ka [1] | binding to Tie2-Fc | Molecule | binding to Tie2-Fc (listed as VT)
1 |  |  |  | CHHHRHSF [Vasculotide, 4-armed maleimide-functionalized polyethylene glycol (PEG) backbone to link together four cysteine-capped T7 peptides, that is, CHHHRHSF] | no binding to Tie2-Fc was detectable
2 | 0.00029 s⁻¹ | 1.4e+06 M⁻¹ s⁻¹ | bound strongly | recombinant human Ang1 (rhAng1) (ligand, UniProt Q15389 16-498, looked up, angiopoietin-1, human, recombinant; also called angiopoietin-1; source: bought: R&D Systems (named for the Boyden chamber experiments)) HIGCSNQRRSPENSGRRYNRIQHGQCAYTFILPEHDGNCRESTTDQYNTNALQRDAPHVEPDFSSQKLQHLEHVMENYTQWLQKLENYIVENMKSEMAQIQQNAVQNHTATMLEIGTSLLSQTAEQTRKLTDVETQVLNQTSRLEIQLLENSLSTYKLEKQLLQQTNEILKIHEKNSLLEHKILEMEGKHKEELDTLKEEKENLQGLVTRQTYIIQELEKQLNRATTNNSVLQKQQLELMDTVHNLVNLCTKEGVLLKGGKREEEKPFRDCADVYQAGFNKSGIYTIYINNMPEPKKVFCNMDVNGGGWTVIQHREDGSLDFQRGWKEYKMGFGNPSGEYWLGNEFIFAITSQRQYMLRIELMDWEGNRAYSQYDRFHIGNEKQNYRLYLKGHTGTAGKQSSLILHGADFSTKDADNDNCMCKCALMLTGGWWFDACGPSNLNGMFYTAGQNHGKLNGIKWHYFKGPSYSLRSTTMMIRPLDF | 
